The supplement of paper PMC11316812
± gives the standard deviation of the averaged measurements.

Tests used:
MCF7 = assay: percentage of EdU-negative (G0-arrested) nuclei per well, 72 h; higher = more G0 arrest; conditions: reference: sequence is the full UniProt precursor, the tested protein was the secreted form or ectodomain
hTERT-HMEC = assay: as above; conditions: reference: sequence is the full UniProt precursor, the tested protein was the secreted form or ectodomain
[1] = protein concentration 0.0182857 µM
[2] = protein concentration 0.182857 µM
[3] = protein concentration 0.01051 µM
[4] = protein concentration 0.1051 µM
[5] = protein concentration 0.0191429 µM
[6] = protein concentration 0.191429 µM
[7] = protein concentration 0.03125 µM
[8] = protein concentration 0.3125 µM
[9] = protein concentration 0.0225 µM
[10] = protein concentration 0.0174286 µM
[11] = protein concentration 0.174286 µM
[12] = protein concentration 0.0122857 µM
[13] = protein concentration 0.122857 µM
[14] = protein concentration 0.0155 µM
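Further: secreted proteins added to cultured cells, EdU pulse at the end, nuclei found by Hoechst imaging, EdU status from nuclear versus surrounding ring intensity ratio, PBS as neutral control.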

Chain of Q9BXJ3 (chain, as listed by the source): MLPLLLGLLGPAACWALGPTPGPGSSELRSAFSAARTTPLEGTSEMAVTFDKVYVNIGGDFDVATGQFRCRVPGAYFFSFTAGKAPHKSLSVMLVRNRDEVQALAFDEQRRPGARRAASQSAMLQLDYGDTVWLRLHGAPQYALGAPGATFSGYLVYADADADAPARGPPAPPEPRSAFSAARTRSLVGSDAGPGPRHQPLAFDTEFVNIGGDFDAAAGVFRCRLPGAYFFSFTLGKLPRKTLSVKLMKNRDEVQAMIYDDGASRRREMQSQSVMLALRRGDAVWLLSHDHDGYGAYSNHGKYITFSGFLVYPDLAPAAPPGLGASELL

MNWHLPLFLLASVTLPSICSHFNPLSLEELGSNTGIQVFNQIVKSRPHDNIVISPHGIASVLGMLQLGADGRTKKQLAMVMRYGVNGVGKILKKINKAIVSKKNKDIVTVANAVFVKNASEIEVPFVTRNKDVFQCEVRNVNFEDPASACDSINAWVKNETRDMIDNLLSPDLIDGVLTRLVLVNAVYFKGLWKSRFQPENTKKRTFVAADGKSYQVPMLAQLSVFRCGSTSAPNDLWYNFIELPYHGESISMLIALPTESSTPLSAIIPHISTKTIDSWMSIMVPKRVQVILPKFTAVAQTDLKEPLKVLGITDMFDSSKANFAKITTGSENLHVSHILQKAKIEVSEDGTKASAATTAILIARSSPPWFIVDRPFLFFIRHNPTGAVLFMGQINKP
percentage of EdU-negative (MCF7; [1]): 26.98 ± 0.12%
percentage of EdU-negative (MCF7; [2]): 27.93 ± 0.17%
percentage of EdU-negative (hTERT-HMEC; [1]): 4.86 ± 0.67%
percentage of EdU-negative (hTERT-HMEC; [2]): 9.81 ± 1%

MLKKPLSAVTWLCIFIVAFVSHPAWLQKLSKHKTPAQPQLKAANCCEEVKELKAQVANLSSLLSELNKKQERDWVSVVMQVMELESNSKRMESRLTDAESKYSEMNNQIDIMQLQAAQTVTQTSADAIYDCSSLYQKNYRISGVYKLPPDDFLGSPELEVFCDMETSGGGWTIIQRRKSGLVSFYRDWKQYKQGFGSIRGDFWLGNEHIHRLSRQPTRLRVEMEDWEGNLRYAEYSHFVLGNELNSYRLFLGNYTGNVGNDALQYHNNTAFSTKDKDNDNCLDKCAQLRKGGYWYNCCTDSNLNGVYYRLGEHNKHLDGITWYGWHGSTYSLKRVEMKIRPEDFKP
percentage of EdU-negative (MCF7; [3]): 24.6 ± 2.7%
percentage of EdU-negative (MCF7; [4]): 25.2 ± 0.9%
percentage of EdU-negative (hTERT-HMEC; [3]): 4.85 ± 0.3%
percentage of EdU-negative (hTERT-HMEC; [4]): 5.52 ± 0.31%

Q9BXJ3
percentage of EdU-negative (MCF7; [5]): 27.3 ± 3.6%
percentage of EdU-negative (MCF7; [6]): 23.8 ± 1.1%
percentage of EdU-negative (hTERT-HMEC; [5]): 5.17 ± 0.79%
percentage of EdU-negative (hTERT-HMEC; [6]): 4.77 ± 0.24%

MRVLLAALGLLFLGALRAFPQDRPFEDTCHGNPSHYYDKAVRRCCYRCPMGLFPTQQCPQRPTDCRKQCEPDYYLDEADRCTACVTCSRDDLVEKTPCAWNSSRVCECRPGMFCSTSAVNSCARCFFHSVCPAGMIVKFPGTAQKNTVCEPASPGVSPACASPENCKEPSSGTIPQAKPTPVSPATSSASTMPVRGGTRLAQEAASKLTRAPDSPSSVGRPSSDPGLSPTQPCPEGSGDCRKQCEPDYYLDEAGRCTACVSCSRDDLVEKTPCAWNSSRTCECRPGMICATSATNSCARCVPYPICAAETVTKPQDMAEKDTTFEAPPLGTQPDCNPTPENGEAPASTSPTQSLLVDSQASKTLPIPTSAPVALSSTGKPVLDAGPVLFWVILVLVVVVGSSAFLLCHRRACRKRIRQKLHLCYPVQTSQPKLELVDSRPRRSSTQLRSGASVTEPVAEERGLMSQPLMETCHSVGAAYLESLPLQDASPAGGPSSPRDLPEPRVSTEHTNNKIEKIYIMKADTVIVGTVKAELPEGRGLAGPAEPELEEELEADHTPHYPEQETEPPLGSCSDVMLSVEEEGKEDPLPTAASGK
percentage of EdU-negative (MCF7; [7]): 24 ± 2.9%
percentage of EdU-negative (MCF7; [8]): 24 ± 0.5%
percentage of EdU-negative (hTERT-HMEC; [7]): 5.63 ± 0.33%
percentage of EdU-negative (hTERT-HMEC; [8]): 5.66 ± 0.2%

MGHRFLRGLLTLLLPPPPLYTRHRMLGPESVPPPKRSRSKLMAPPRIGTHNGTFHCDEALACALLRLLPEYRDAEIVRTRDPEKLASCDIVVDVGGEYDPRRHRYDHHQRSFTETMSSLSPGKPWQTKLSSAGLIYLHFGHKLLAQLLGTSEEDSMVGTLYDKMYENFVEEVDAVDNGISQWAEGEPRYALTTTLSARVARLNPTWNHPDQDTEAGFKRAMDLVQEEFLQRLDFYQHSWLPARALVEEALAQRFQVDPSGEIVELAKGACPWKEHLYHLESGLSPPVAIFFVIYTDQAGQWRIQCVPKEPHSFQSRLPLPEPWRGLRDEALDQVSGIPGCIFVHASGFIGGHRTREGALSMARATLAQRSYLPQIS [Q9HB07]
percentage of EdU-negative (MCF7; [9]): 26.7 ± 1.3%
percentage of EdU-negative (MCF7; protein concentration 0.225 µM): 27.2 ± 0.95%
percentage of EdU-negative (hTERT-HMEC; [9]): 4.42 ± 0.079%
percentage of EdU-negative (hTERT-HMEC; protein concentration 0.225 µM): 11 ± 1.7%

MGWLPLLLLLTQCLGVPGQRSPLNDFQVLRGTELQHLLHAVVPGPWQEDVADAEECAGRCGPLMDCRAFHYNVSSHGCQLLPWTQHSPHTRLRRSGRCDLFQKKDYVRTCIMNNGVGYRGTMATTVGGLPCQAWSHKFPNDHKYTPTLRNGLEENFCRNPDGDPGGPWCYTTDPAVRFQSCGIKSCREAACVWCNGEEYRGAVDRTESGRECQRWDLQHPHQHPFEPGKFLDQGLDDNYCRNPDGSERPWCYTTDPQIEREFCDLPRCGSEAQPRQEATTVSCFRGKGEGYRGTANTTTAGVPCQRWDAQIPHQHRFTPEKYACKDLRENFCRNPDGSEAPWCFTLRPGMRAAFCYQIRRCTDDVRPQDCYHGAGEQYRGTVSKTRKGVQCQRWSAETPHKPQFTFTSEPHAQLEENFCRNPDGDSHGPWCYTMDPRTPFDYCALRRCADDQPPSILDPPDQVQFEKCGKRVDRLDQRRSKLRVVGGHPGNSPWTVSLRNRQGQHFCGGSLVKEQWILTARQCFSSCHMPLTGYEVWLGTLFQNPQHGEPSLQRVPVAKMVCGPSGSQLVLLKLERSVTLNQRVALICLPPEWYVVPPGTKCEIAGWGETKGTGNDTVLNVALLNVISNQECNIKHRGRVRESEMCTEGLLAPVGACEGDYGGPLACFTHNCWVLEGIIIPNRVCARSRWPAVFTRVSVFVDWIHKVMRLG [G3XAK1]
percentage of EdU-negative (MCF7; [10]): 22.6 ± 1.9%
percentage of EdU-negative (MCF7; [11]): 27.79 ± 0.11%
percentage of EdU-negative (hTERT-HMEC; [10]): 4.79 ± 0.57%
percentage of EdU-negative (hTERT-HMEC; [11]): 5.55 ± 0.076%

MKILILGIFLFLCSTPAWAKEKHYYIGIIETTWDYASDHGEKKLISVDTEHSNIYLQNGPDRIGRLYKKALYLQYTDETFRTTIEKPVWLGFLGPIIKAETGDKVYVHLKNLASRPYTFHSHGITYYKEHEGAIYPDNTTDFQRADDKVYPGEQYTYMLLATEEQSPGEGDGNCVTRIYHSHIDAPKDIASGLIGPLIICKKDSLDKEKEKHIDREFVVMFSVVDENFSWYLEDNIKTYCSEPEKVDKDNEDFQESNRMYSVNGYTFGSLPGLSMCAEDRVKWYLFGMGNEVDVHAAFFHGQALTNKNYRIDTINLFPATLFDAYMVAQNPGEWMLSCQNLNHLKAGLQAFFQVQECNKSSSKDNIRGKHVRHYYIAAEEIIWNYAPSGIDIFTKENLTAPGSDSAVFFEQGTTRIGGSYKKLVYREYTDASFTNRKERGPEEEHLGILGPVIWAEVGDTIRVTFHNKGAYPLSIEPIGVRFNKNNEGTYYSPNYNPQSRSVPPSASHVAPTETFTYEWTVPKEVGPTNADPVCLAKMYYSAVEPTKDIFTGLIGPMKICKKGSLHANGRQKDVDKEFYLFPTVFDENESLLLEDNIRMFTTAPDQVDKEDEDFQESNKMHSMNGFMYGNQPGLTMCKGDSVVWYLFSAGNEADVHGIYFSGNTYLWRGERRDTANLFPQTSLTLHMWPDTEGTFNVECLTTDHYTGGMKQKYTVNQCRRQSEDSTFYLGERTYYIAAVEVEWDYSPQREWEKELHHLQEQNVSNAFLDKGEFYIGSKYKKVVYRQYTDSTFRVPVERKAEEEHLGILGPQLHADVGDKVKIIFKNMATRPYSIHAHGVQTESSTVTPTLPGETLTYVWKIPERSGAGTEDSACIPWAYYSTVDQVKDLYSGLIGPLIVCRRPYLKVFNPRRKLEFALLFLVFDENESWYLDDNIKTYSDHPEKVNKDDEEFIESNKMHAINGRMFGNLQGLTMHVGDEVNWYLMGMGNEIDLHTVHFHGHSFQYKHRGVYSSDVFDIFPGTYQTLEMFPRTPGIWLLHCHVTDHIHAGMETTYTVLQNEDTKSG
percentage of EdU-negative (MCF7; [12]): 22.7 ± 3%
percentage of EdU-negative (MCF7; [13]): 29.9 ± 0.94%
percentage of EdU-negative (hTERT-HMEC; [12]): 5.56 ± 0.7%
percentage of EdU-negative (hTERT-HMEC; [13]): 7.89 ± 0.25%

MGRRDAQLLAALLVLGLCALAGSEKPSPCQCSRLSPHNRTNCGFPGITSDQCFDNGCCFDSSVTGVPWCFHPLPKQESDQCVMEVSDRRNCGYPGISPEECASRKCCFSNFIFEVPWCFFPKSVEDCHY
percentage of EdU-negative (MCF7; [9]): 23 ± 1.6%
percentage of EdU-negative (MCF7; protein concentration 0.225 µM): 24.8 ± 1.3%
percentage of EdU-negative (hTERT-HMEC; [9]): 5.31 ± 1.5%
percentage of EdU-negative (hTERT-HMEC; protein concentration 0.225 µM): 5.92 ± 0.79%

MASPGCLWLLAVALLPWTCASRALQHLDPPAPLPLVIWHGMGDSCCNPLSMGAIKKMVEKKIPGIYVLSLEIGKTLMEDVENSFFLNVNSQVTTVCQALAKDPKLQQGYNAMGFSQGGQFLRAVAQRCPSPPMINLISVGGQHQGVFGLPRCPGESSHICDFIRKTLNAGAYSKVVQERLVQAEYWHDPIKEDVYRNHSIFLADINQERGINESYKKNLMALKKFVMVKFLNDSIVDPVDSEWFGFYRSGQAKETIPLQETSLYTQDRLGLKEMDNAGQLVFLATEGDHLQLSEEWFYAHIIPFLG
percentage of EdU-negative (MCF7; [9]): 25.6 ± 1.6%
percentage of EdU-negative (MCF7; protein concentration 0.225 µM): 26.4 ± 0.39%
percentage of EdU-negative (hTERT-HMEC; [9]): 4.49 ± 0.2%
percentage of EdU-negative (hTERT-HMEC; protein concentration 0.225 µM): 9.52 ± 0.25%

MIIVAHVLLILLGATEILQADLLPDEKISLLPPVNFTIKVTGLAQVLLQWKPNPDQEQRNVNLEYQVKINAPKEDDYETRITESKCVTILHKGFSASVRTILQNDHSLLASSWASAELHAPPGSPGTSIVNLTCTTNTTEDNYSRLRSYQVSLHCTWLVGTDAPEDTQYFLYYRYGSWTEECQEYSKDTLGRNIACWFPRTFILSKGRDWLAVLVNGSSKHSAIRPFDQLFALHAIDQINPPLNVTAEIEGTRLSIQWEKPVSAFPIHCFDYEVKIHNTRNGYLQIEKLMTNAFISIIDDLSKYDVQVRAAVSSMCREAGLWSEWSQPIYVGNDEHKPLREWFVIVIMATICFILLILSLICKICHLWIKLFPPIPAPKSNIKDLFVTTNYEKAGSSETEIEVICYIEKPGVETLEDSVF
percentage of EdU-negative (MCF7; [9]): 25.4 ± 1.1%
percentage of EdU-negative (MCF7; protein concentration 0.225 µM): 25.9 ± 1.3%
percentage of EdU-negative (hTERT-HMEC; [9]): 4.86 ± 0.92%
percentage of EdU-negative (hTERT-HMEC; protein concentration 0.225 µM): 5.18 ± 0.52%

MTVARPSVPAALPLLGELPRLLLLVLLCLPAVWGDCGLPPDVPNAQPALEGRTSFPEDTVITYKCEESFVKIPGEKDSVICLKGSQWSDIEEFCNRSCEVPTRLNSASLKQPYITQNYFPVGTVVEYECRPGYRREPSLSPKLTCLQNLKWSTAVEFCKKKSCPNPGEIRNGQIDVPGGILFGATISFSCNTGYKLFGSTSSFCLISGSSVQWSDPLPECREIYCPAPPQIDNGIIQGERDHYGYRQSVTYACNKGFTMIGEHSIYCTVNNDEGEWSGPPPECRGKSLTSKVPPTVQKPTTVNVPTTEVSPTSQKTTTKTTTPNAQATRSTPVSRTTKHFHETTPNKGSGTTSGTTRLLSGHTCFTLTGLLGTLVTMGLLT
percentage of EdU-negative (MCF7; [14]): 26.2 ± 1%
percentage of EdU-negative (MCF7; protein concentration 0.155 µM): 26.1 ± 1.8%
percentage of EdU-negative (hTERT-HMEC; [14]): 4.51 ± 0.44%
percentage of EdU-negative (hTERT-HMEC; protein concentration 0.155 µM): 7.07 ± 0.42%

MKYTSYILAFQLCIVLGSLGCYCQDPYVKEAENLKKYFNAGHSDVADNGTLFLGILKNWKEESDRKIMQSQIVSFYFKLFKNFKDDQSIQKSVETIKEDMNVKFFNSNKKKRDDFEKLTNYSVTDLNVQRKAIHELIQVMAELSPAAKTGKRKRSQMLFRGRRASQ
percentage of EdU-negative (MCF7; [7]): 39.5 ± 2.2%
percentage of EdU-negative (MCF7; [8]): 42.7 ± 1.8%
percentage of EdU-negative (hTERT-HMEC; [7]): 92.2 ± 1.5%
percentage of EdU-negative (hTERT-HMEC; [8]): 96.92 ± 0.62%
